Target: T1, His-tagged human calmodulin (recombinant) (human, UniProt P0DP24 1-149)
T1 construct: human calmodulin, CALM2 cDNA (OriGene SC125707) in a modified pET16b with a TEV site between the N-terminal polyhistidine tag and the protein; also called free calmodulin; recombinant calmodulin; not shown: polyhistidine, N-terminal, kept
Assay: ELISA; competition: calmodulin immobilised, GST-DED1 held at its KD concentration, R4 peptide titrated; anti-GST AlexaFluor 488 detection
Details: both partners purified

- IC50: 63 µM
B1: DED1 R4 peptide (peptide)
peptide: VRRFDLLKRILK
notes: cFLIP DED1 region 4, V62-K73, twelve amino acids; also called region 4; source: synthetic peptide (Tufts University Core Facility)

Source: article PMC4631386, “Identification and Characterization of the Interaction Site between cFLIPL and Calmodulin” (PLoS ONE, 2015)
